{"source": "patent US20160097044A1", "about": "“Antimicrobial Enzyme Fusions Reduce Resistance and Kill Intracellular Staphylococcus aureus” (The United States of America, as Represented by the …, priority 2014, published 2016)", "molecules": {"B1": {"name": "L-K: LysK lytic domains inserted between lysostaphin's M23 endopeptidase domain and SH3b cell wall binding domain; SEQ ID NO:7, protein SEQ ID NO:8 (protein)", "chain": "MAATHEHSAQWLNNYKKGYGYGPYPLGINGGMHYGVDFFMNIGTPVKAISSGKIVEAGWSNYGGGNQIGLIENDGVHRQWYMHLSKYNVKVGDYVKAGQIIGWSGSTGYSTAPHLHFQRMVNSFSNSTAQDPMPFLKSAGYGKAGGTVTPTPNTGLDAKTQAEINKRLDAYAKGTVDSPYRVKKATSYDPSFGVMEAGAIDADGYYHAQCQDLITDYVLWLTDNKVRTWGNAKDQIKQSYGTGFKIHENKPSTVPKKGWIAVFTSGSYEQWGHIGIVYDGGNTSTFTILEQNWNGYANKKPTKRVDNYYGLTHFIEIPVKAGTTVKKETAKKSASKTPAPKKKATLKVSKNHINYTMDKRGKKPEGMVIHNDAGRSSGQQYENSLANAGYARYANGIAHYYGSEGYVWEAIDAKNQIAWHTGDGTGANSGNFRFAGIEVCQSMSASDAQFLKNEQAVFQFTAEKFKEWGLTPNRKTVRLHMEFVPTACPHRSMVLHTGFNPVTQGRPSQAIMNKLKDYFIKQIKNYMDKGTSSSTVVKDGKTSSASLDTVTPTPNTGWKTNKYGTLYKSESASFTPNTDIITRTTGPFRSMPQSGVLKAGQTIHYDEVMKQDGHVWVGYTGNSGQRIYLPVRTWNKSTNTLGVLWGTIKLEHHHHHH", "modifications": "Staphylococcus simulans & Phage K"}}, "key": {"[1]": {"test_system": "intracellular S. aureus strain UAMS-1 in primary mouse-derived osteoblasts (mOBs)", "test": "Intracellular S. aureus eradication assay in murine osteoblasts", "format": "cell-based", "conditions": "mOB, 5 μg/ml, 2 h", "description": "FIGS. 5a-5e depict peptidoglycan hydrolase-protein transduction domain (PGH-PTD) eradication of intracellular S. aureus in cultured cells. Cultured cells were infected, treated with gentamicin to kill extracellular S. aureus, and then treated with the peptidoglycan hydrolases indicated. All results are standardized to the gentamicin (GENT) only control. Nomenclature of the peptidoglycan hydrolase constructs is as in FIG. 1. Asterisks indicate statistical significance detected with single factor ANOVA (α=0.05) with paired t-test posthoc analyses α=0.05 adjusted with Sidák correction for multiple comparisons (for all cases p<0.01). […] Error bars represent SEM. […] Yellow staining in the combined panel represents intracellular co-localization (in a single plane as determined by z-stack analysis) of both S. aureus and K-L-PTD1 (blue arrow). […]\nThree similar intracellular S. aureus eradication assays from three different labs were optimized for (A) a cultured bovine mammary epithelial cell line (MAC-T, Nexia Biotechnologies, Quebec, Canada; Almeida, supra), (B) primary C57BL/6 mouse-derived osteoblasts (mOBs) (McCall et al. 2008. J. Bone Miner. Res. 23: 30-40) or (C) human brain microvascular endothelial cells (hBMEC; Stins, supra). […] The cell lysate was subjected to serial dilution plating, and the resultant CFUs were counted and normalized to the gentamicin control for each assay. […]"}, "[2]": {"test_system": "post-treatment isolates of S. aureus ALR", "test": "Resistance of isolates recovered from nares of treated rats (plate lysis, MIC)", "format": "cell-based", "protocol": "The Minimum Inhibitory Concentrations (MIC) of each protein for multiple S. aureus strains was determined as previously described (Jones et al. 1985. In: Manual of Clinical Microbiology, Eds. Balows et al. American Society of Microbiology, Washington D.C., pp. 972-977) with the following modifications. Enzymes were serially diluted two fold across a 96 well plate, such that after dilution, 50 μl of the enzyme solution in 300 mM NaCl, 50 mM NaH2PO4, 30% glycerol pH 7.5, remained in each well. To each well was added 50 μl of TSB and 100 μl of S. aureus Newman in TSB (diluted to 5×10^6 cells/ml). The plates were incubated 20 h at 37° C. and read with a 96 well plate reader. MIC determination values were reported as the median of ≧4 replicates (Table 1)."}}, "note": "“Also recorded” adds a separate entry of the source."}
{"molecule": "K-L: both LysK lytic domains fused to the N-terminus of lysostaphin; SEQ ID NO:5, protein SEQ ID NO:6", "values": [{"measurement": "intracellular S. aureus CFUs relative to gentamicin only control", "setting": "[1]", "value": "reduced the intracellular bacteria recovered"}]}
{"molecule": "B1", "values": [{"measurement": "MIC of 8 post-treatment isolates", "setting": "[2]; isolates from rats treated with triple fusion L-K, N=32", "value": "7.0 ± 2.4", "unit": "µg/mL"}, {"measurement": "resistance of colonies recovered from nares of treated rats", "setting": "[2]; plate lysis analysis, N=22 colonies", "value": "not more resistant than the parental strain; also recorded: no in vivo resistance development detected"}]}
